Results published in article PMC9019248.

Molecular target: calmodulin-Sepharose, P0DP23
Test: pull-down
Conditions: remark: other sources report otherwise

Row | percent reduction of binding with EGTA against Ca2+ | fold more bound with Ca2+ than with EGTA | Binder
1 | 70.9% | – | purified recombinant human LATS1 (active kinase), O95835 1-1130 (enzyme) MKRSEKPEGYRQMRPKTFPASNYTVSSRQMLQEIRESLRNLSKPSDAAKAEHNMSKMSTEDPRQVRNPPKFGTHHKALQEIRNSLLPFANETNSSRSTSEVNPQMLQDLQAAGFDEDMVIQALQKTNNRSIEAAIEFISKMSYQDPRREQMAAAAARPINASMKPGNVQQSVNRKQSWKGSKESLVPQRHGPPLGESVAYHSESPNSQTDVGRPLSGSGISAFVQAHPSNGQRVNPPPPPQVRSVTPPPPPRGQTPPPRGTTPPPPSWEPNSQTKRYSGNMEYVISRISPVPPGAWQEGYPPPPLNTSPMNPPNQGQRGISSVPVGRQPIIMQSSSKFNFPSGRPGMQNGTGQTDFMIHQNVVPAGTVNRQPPPPYPLTAANGQSPSALQTGGSAAPSSYTNGSIPQSMMVPNRNSHNMELYNISVPGLQTNWPQSSSAPAQSSPSSGHEIPTWQPNIPVRSNSFNNPLGNRASHSANSQPSATTVTAITPAPIQQPVKSMRVLKPELQTALAPTHPSWIPQPIQTVQPSPFPEGTASNVTVMPPVAEAPNYQGPPPPYPKHLLHQNPSVPPYESISKPSKEDQPSLPKEDESEKSYENVDSGDKEKKQITTSPITVRKNKKDEERRESRIQSYSPQAFKFFMEQHVENVLKSHQQRLHRKKQLENEMMRVGLSQDAQDQMRKMLCQKESNYIRLKRAKMDKSMFVKIKTLGIGAFGEVCLARKVDTKALYATKTLRKKDVLLRNQVAHVKAERDILAEADNEWVVRLYYSFQDKDNLYFVMDYIPGGDMMSLLIRMGIFPESLARFYIAELTCAVESVHKMGFIHRDIKPDNILIDRDGHIKLTDFGLCTGFRWTHDSKYYQSGDHPRQDSMDFSNEWGDPSSCRCGDRLKPLERRAARQHQRCLAHSLVGTPNYIAPEVLLRTGYTQLCDWWSVGVILFEMLVGQPPFLAQTPLETQMKVINWQTSLHIPPQAKLSPEASDLIIKLCRGPEDRLGKNGADEIKAHPFFKTIDFSSDLRQQSASYIPKITHPTDTSNFDPVDPDKLWSDDNEEENVNDTLNGWYKNGKHPEHAFYEFTFRRFFDDNGYPYNYPKPIEYEYINSQGSEQQSDEDDQNTGSEIKNRDLVYV
2 | – | 11 fold | large tumor suppressor 1 kinase (endogenous, HEK293 cells), O95835 1-1130 (enzyme) MKRSEKPEGYRQMRPKTFPASNYTVSSRQMLQEIRESLRNLSKPSDAAKAEHNMSKMSTEDPRQVRNPPKFGTHHKALQEIRNSLLPFANETNSSRSTSEVNPQMLQDLQAAGFDEDMVIQALQKTNNRSIEAAIEFISKMSYQDPRREQMAAAAARPINASMKPGNVQQSVNRKQSWKGSKESLVPQRHGPPLGESVAYHSESPNSQTDVGRPLSGSGISAFVQAHPSNGQRVNPPPPPQVRSVTPPPPPRGQTPPPRGTTPPPPSWEPNSQTKRYSGNMEYVISRISPVPPGAWQEGYPPPPLNTSPMNPPNQGQRGISSVPVGRQPIIMQSSSKFNFPSGRPGMQNGTGQTDFMIHQNVVPAGTVNRQPPPPYPLTAANGQSPSALQTGGSAAPSSYTNGSIPQSMMVPNRNSHNMELYNISVPGLQTNWPQSSSAPAQSSPSSGHEIPTWQPNIPVRSNSFNNPLGNRASHSANSQPSATTVTAITPAPIQQPVKSMRVLKPELQTALAPTHPSWIPQPIQTVQPSPFPEGTASNVTVMPPVAEAPNYQGPPPPYPKHLLHQNPSVPPYESISKPSKEDQPSLPKEDESEKSYENVDSGDKEKKQITTSPITVRKNKKDEERRESRIQSYSPQAFKFFMEQHVENVLKSHQQRLHRKKQLENEMMRVGLSQDAQDQMRKMLCQKESNYIRLKRAKMDKSMFVKIKTLGIGAFGEVCLARKVDTKALYATKTLRKKDVLLRNQVAHVKAERDILAEADNEWVVRLYYSFQDKDNLYFVMDYIPGGDMMSLLIRMGIFPESLARFYIAELTCAVESVHKMGFIHRDIKPDNILIDRDGHIKLTDFGLCTGFRWTHDSKYYQSGDHPRQDSMDFSNEWGDPSSCRCGDRLKPLERRAARQHQRCLAHSLVGTPNYIAPEVLLRTGYTQLCDWWSVGVILFEMLVGQPPFLAQTPLETQMKVINWQTSLHIPPQAKLSPEASDLIIKLCRGPEDRLGKNGADEIKAHPFFKTIDFSSDLRQQSASYIPKITHPTDTSNFDPVDPDKLWSDDNEEENVNDTLNGWYKNGKHPEHAFYEFTFRRFFDDNGYPYNYPKPIEYEYINSQGSEQQSDEDDQNTGSEIKNRDLVYV
